Legend:
[1] = system: AP2 (synthetic (de novo)); assay: spectral shift; details: Spectral shift: 10 mM Tris-HCl pH 8.0, 0.05% Tween 20, no added salt, 25 C, Cy5 oligo (20 nM stock), 30 min at RT; MST with oncogenic RNAs in human plasma-like …
[2] = system: CP1 (synthetic (de novo)); assay: spectral shift; details: Spectral shift: 10 mM Tris-HCl pH 8.0, 0.05% Tween 20, no added salt, 25 C, Cy5 oligo (20 nM stock), 30 min at RT; MST with oncogenic RNAs in human plasma-like …
[3] = system: AP2-short Q to S (synthetic (de novo)); assay: spectral shift; details: Spectral shift: 10 mM Tris-HCl pH 8.0, 0.05% Tween 20, no added salt, 25 C, Cy5 oligo (20 nM stock), 30 min at RT; MST with oncogenic RNAs in human plasma-like …
[4] = system: AP2-short (synthetic (de novo)); assay: spectral shift; details: Spectral shift: 10 mM Tris-HCl pH 8.0, 0.05% Tween 20, no added salt, 25 C, Cy5 oligo (20 nM stock), 30 min at RT; MST with oncogenic RNAs in human plasma-like …
[5] = system: CP2 (synthetic (de novo)); assay: spectral shift; details: Spectral shift: 10 mM Tris-HCl pH 8.0, 0.05% Tween 20, no added salt, 25 C, Cy5 oligo (20 nM stock), 30 min at RT; MST with oncogenic RNAs in human plasma-like …
[6] = system: AP2 QNQ to TNH (synthetic (de novo)); assay: spectral shift; details: Spectral shift: 10 mM Tris-HCl pH 8.0, 0.05% Tween 20, no added salt, 25 C, Cy5 oligo (20 nM stock), 30 min at RT; MST with oncogenic RNAs in human plasma-like …
[7] = system: CP1 (synthetic (de novo)); assay: MST; details: Spectral shift: 10 mM Tris-HCl pH 8.0, 0.05% Tween 20, no added salt, 25 C, Cy5 oligo (20 nM stock), 30 min at RT; MST with oncogenic RNAs in human plasma-like …
hnRNPK = hnRNPK (UniProt P61978); assay: fluorescence anisotropy; details: Spectral shift: 10 mM Tris-HCl pH 8.0, 0.05% Tween 20, no added salt, 25 C, Cy5 oligo (20 nM stock), 30 min at RT; MST with oncogenic RNAs in human plasma-like …; cited from earlier work
MYU lncRNA = details: fluorescence anisotropy binding assay, previous study; read-out: KD^hnRNPK, MYU lncRNA; cited from earlier work
Experimental: Figure 7 Assessment of the affinity of poly(C) RNA-binding peptides to cytosine-rich oncogenic RNA motifs. […] The KD^CP1s were measured using microscale thermophoresis in a human plasma-like medium. Cytosines predicted to be single-stranded within RNA ligands are highlighted in red. Cytosine-to-adenine substitution is highlighted in blue. The predicted secondary structures are available in Figure S11. The complete thermodynamic plots are shown in Figure S12. *The KD^hnRNPKs are the dissociation ...

Cdk6 3′UTR RNA = details: fluorescence anisotropy binding assay, previous study; read-out: KD^hnRNPK, Cdk6 3′UTR RNA; cited from earlier work
Experimental: To evaluate the synthetic ssRNA-binding peptide’s affinity for biologically derived RNA targets, we have chosen two cytosine-rich RNA motifs from the oncogenic Cdk6 3′UTR RNA and MYU lncRNA. These motifs have previously been identified as targets of hnRNPK,[45] and they both consist of extended cytosine repeats (>4 nt) within a necessary single-stranded region for the progression of colon cancer cells. […] The KD^CP1s were measured using microscale thermophoresis in a human plasma-like medium. Cytosines predicted to be single-stranded within RNA ligands are highlighted in red. Cytosine-to-adenine substitution is highlighted in blue. The predicted secondary structures are available in Figure S11. The complete thermodynamic plots are shown in Figure S12. *The KD^hnRNPKs are the dissociation ...

## AAAAAAAAAAAA [poly(A) DNA]
[1]
  binding signal (fold weaker than poly(A) RNA): 2

## AAAAAAAAAAAA [poly(A) RNA]
[2]
  binding signal (fold weaker than poly(C) RNA): 4
[1]
  Kd: 18800 nM
[3]
  Kd: 115000 nM
[4]
  Kd: 82000 nM

## CCCCCCCCCCCC [poly(C) DNA]
[2]
  binding signal (fold weaker than poly(C) RNA): 7

## CCCCCCCCCCCC [poly(C) RNA]
[2]
  Kd: 900 nM
[5]
  Kd: 1200 nM
[6]
  Kd: 120000 nM

## GGCUCCCCCGACCUCUGUGCUCCCCUCCCCCGACCUCUGUGC [MYU lncRNA motif]
[7]
  Kd: 107 nM

## GGUCCCCCGCCUCAUUCGCCCCUCUGCUCCC [Cdk6 3'UTR RNA motif]
hnRNPK
  Kd: 450 nM
[7]
  Kd: 103 nM

## hnRNPK: endogenous RNA-binding protein with KH domain, binds cytosine-rich RNA motifs
MYU lncRNA
  Kd: 70 ± 7 nM
Cdk6 3′UTR RNA
  Kd: 450 nM

## poly(C) RNA / antisense DNA hybrid
[2]
  binding signal (fold weaker than poly(C) RNA): 6

Reference: article PMC10777347, “De Novo Single-Stranded RNA-Binding Peptides Discovered by Codon-Restricted mRNA Display” (Biomacromolecules, 2023)
